# Molecular target: WRKY34 (WT) (Arabidopsis thaliana, UniProt O65590 1-568)
# Assay: EMSA; competed by 250-fold unlabeled W-box tested; 20 mM HEPES pH 7.9, 50 mM KCl, 0.5 mM DTT, 0.1 mM EDTA, 0.1 ug/uL herring sperm DNA, room temperature 30 min; 1 ug protein, 2 pmol probe; 5% native PAGE, 0.5x TBE
# Conditions: protein: recombinant; label: 32P 5' end; blunt
# WRKY34 (WT), sequence (O65590 whole entry): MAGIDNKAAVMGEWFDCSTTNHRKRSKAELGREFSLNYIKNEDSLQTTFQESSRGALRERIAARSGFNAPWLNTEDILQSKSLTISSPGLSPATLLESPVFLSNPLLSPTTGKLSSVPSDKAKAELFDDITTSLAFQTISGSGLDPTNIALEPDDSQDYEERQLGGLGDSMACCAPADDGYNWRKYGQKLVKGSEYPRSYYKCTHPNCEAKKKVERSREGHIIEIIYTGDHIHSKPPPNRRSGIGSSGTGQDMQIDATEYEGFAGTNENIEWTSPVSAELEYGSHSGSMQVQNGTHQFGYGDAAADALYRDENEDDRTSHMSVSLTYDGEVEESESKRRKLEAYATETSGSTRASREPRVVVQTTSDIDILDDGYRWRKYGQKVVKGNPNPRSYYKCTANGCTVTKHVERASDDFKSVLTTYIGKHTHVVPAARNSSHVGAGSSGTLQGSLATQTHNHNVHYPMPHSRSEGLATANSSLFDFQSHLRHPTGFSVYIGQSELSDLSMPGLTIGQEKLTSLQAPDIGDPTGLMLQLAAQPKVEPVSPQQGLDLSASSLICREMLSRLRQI
binder,measurement,value
W-box probe (three W boxes) (dsDNA) DNA 1: CGTTGACCGTTGACCGAGTTGACTTTTTA DNA 2: TAAAAAGTCAACTCGGTCAACGGTCAACG,binding result,binds

# — paper PMC4022456, “Phosphorylation of a WRKY Transcription Factor by MAPKs Is Required for Pollen Development and Function in Arabidopsis”
